Laboratory results: article PMC11745410

Biological target: TAX9-loaded HLA-A*02:01/β2m
Assay: SPR

With “TAPBPR^∆ALAS (A29-S32 deletion) (from UniProt Q9BX59 22-405) (natural protein)” as the substance, how does the fold decrease in KD against TAPBPR^WT (so in the source) read?
Its fold decrease in KD against TAPBPR^WT (so in the source) is 3 fold.

Which fold decrease in KD against TAPBPR^WT (so in the source) does the source give for “TAPBPR^∆G24-R36 (G24-R36 deletion) (from UniProt Q9BX59 22-405) (natural protein)” here?
The fold decrease in KD against TAPBPR^WT (so in the source) was 3 fold.
